Source: patent publication US20030176671A1 (SANFORD BURNHAM MEDICAL RESEARCH INSTITUTE, published 2003)
Residue numbers refer to the chain shown, from its start. Values belong to the binder of their own block, whether it stands above or below them.

Columns and labels:
Bax = molecular target: T1, Bax (UniProt Q07812 1-192, limits assumed); test: co-immunoprecipitation with anti-Myc beads from HEK293T lysates, anti-Bax immunoblot (FIG. 4A)
T1 construct: also called pcDNA3-Bax
Experimental: 293T cells (5×10₆) cultured with 50 uM […]-Val-Ala-Asp-fluoromethylketone (ZVAD-fmk, Bachem) were co-transfected with 1.5 ug of pcDNA3-Myc-Bcl-B, pcl-Neo-Flag-Bcl-B, pcDNA3-hCBP (Human Calcyclin Binding Protein) (used as a control), or pcDNA3-Flag-BCI-XL, together with 1.5 ug of pEGFP, pEGFP-Bcl-B, pcDNA3-HA-BAG1, pcDNA3-HA-Bax, pcDNA3-Flag-Bcl-XL, pRC-CMV-Bcl-2 or pEGFP-Bak. At 24 hrs post-transfection, cells were collected and resuspended in lysis buffer (142.4 mM KCI, 5 mM MgCl₂, 10 MM HEPES (pH 7.4), 0.5 mM EGTA, 0.2% NP-40) containing 12.5 mM p-glycerophosphate, 2 mM NaF, 1 mM Na₃VO₄, 1 mM DTT, 1 mM PMSF and a protease inhibitor mixture (Boehringer Mannheim). Soluble lysates were incubated with 10 ul anti-Myc (Santa Cruz) or anti-Flag (Sigma) antibody conjugated Sepharose beads overnight at 4° C. Beads were washed four times in 1.5 ml lysis buffer, and boiled in Laemmli gel-loading solution before performing SDS-PAGE/immunoblotting. The following polyclonal or monoclonal antibodies were used: polyclonal rabbit anti-GFP (Roche), monoclonal rat anti-HA (Roche), monoclonal mouse anti-Flag (Sigma), monoclonal mouse anti-Myc (Santa Cruz), rabbit anti-huBcl—2, or rabbit anti-huBcl-XL (Krajewski, et al., Am. J. Pathol. 145, 515-525 (1994); Krajewski et al., Cancer Res. 54, 5501-5507 (1994)).
Binding studies confirmed that binding between Bcl-B and Bax mediates suppression of apoptosis by Bax. In brief, HEK293T cells were transiently transfected with several Myc-tagged constructs (human calcyclin-binding protein, wildtype Bcl-B, L86A, R96Q, FFR(169-171)AAA, Δ118-133) and cell lysates were prepared and immunoprecipitated with anti-Myc antibody conjugated to beads. Immunoprecipitates were subjected to SDS-PAGE/immunoblot analysis using rabbit polyclonal antibodies specific for Bax (FIG. 4A). To confirm expression of proteins, lysates were subject to immunoblot analysis using antibodies specific for Bax and Myc.

GFP-Bak = molecular target: T2, GFP-Bak (UniProt Q16611 1-211); test: co-immunoprecipitation from transfected 293T cell lysates, immunoblot
T2 construct: also called pEGFP-Bak; not shown: EGFP from a pEGFP vector
T2 sequence (looked up): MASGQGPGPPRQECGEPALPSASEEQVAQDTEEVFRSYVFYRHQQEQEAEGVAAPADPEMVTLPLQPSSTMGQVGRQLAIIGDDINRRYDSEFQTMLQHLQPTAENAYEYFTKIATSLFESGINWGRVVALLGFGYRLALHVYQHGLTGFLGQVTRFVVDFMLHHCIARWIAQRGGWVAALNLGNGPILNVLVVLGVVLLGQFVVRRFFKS

T1 sequence (Q07812 whole entry): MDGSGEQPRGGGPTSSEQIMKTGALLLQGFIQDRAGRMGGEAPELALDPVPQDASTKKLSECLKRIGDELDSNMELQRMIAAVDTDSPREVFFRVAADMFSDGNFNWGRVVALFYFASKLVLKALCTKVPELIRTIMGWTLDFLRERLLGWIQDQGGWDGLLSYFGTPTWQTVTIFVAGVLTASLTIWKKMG

- binding result (Bax): no binding
B1: Myc-Bcl-B deletion 118-133 (other, not shown: small tags and cut ends)
chain: MVDQLRERTTMADPLRERTELLLADYLGYCAREPGTPEPAPSTPEAAVLRSAAARLRQIHRSFFSAYLGYPGNRFELVALMADSVLSDSPGPTWGRVVTLVTFAGTLLERGPLVTARVARDCQRLVALLSSRLMGQHRAWLQAQGGWDGFCHFFRTPFPLAFWRKQLVQAFLSCLLTTAFIYLWTRLL
notes: also called (delta)118-133

- binding result (GFP-Bak): no binding
B2: Myc-Bcl-B (other, not shown: small tags and cut ends)
chain: MVDQLRERTTMADPLRERTELLLADYLGYCAREPGTPEPAPSTPEAAVLRSAAARLRQIHRSFFSAYLGYPGNRFELVALMADSVLSDSPGPTWGRVVTLVTFAGTLLERGPLVTARWKKWGFQPRLKEQEGDVARDCQRLVALLSSRLMGQHRAWLQAQGGWDGFCHFFRTPFPLAFWRKQLVQAFLSCLLTTAFIYLWTRLL
notes: Expressed in 293T cells and immunoprecipitated from lysates; also called wildtype Bcl-B; pcDNA3-Myc-Bcl-B

- binding result (Bax): no binding
B3: Myc-Bcl-B R96Q (other, not shown: small tags and cut ends)
chain: B2 chain with R96Q
notes: Myc-tagged Bcl-B point mutant

- binding result (Bax): no binding
B4: Myc-Bcl-B L86A (other, not shown: small tags and cut ends)
chain: B2 chain with L86A
notes: Myc-tagged Bcl-B point mutant
